According to the DeepSol protein solubility set:

Experiment: soluble on expression in E. coli; label from the status in PepcDB or PDB records

Sequence | soluble on expression in E. coli
MSLEEWEKHMQNFIPDMLVTFPLAPRSDEYFYEHIEANDGAVHLRGGFFVGGDEGSASVDFSITDPDGDIIYKKSKSEGLFYFTAKKKGTYSFIVSNHQWLESRMVTFAIGRGNETALMPKHVQTAGEMADTLQNQLRDIQLLLLQQEKENGSSSSVSEEKADATASAASAGGLTDREMKQVIYGACRKVDARNATEIPSCRGIPLTEVHRHWVIEEKERIARMGGTIENGRVNGSLEVTRSFGDISLKRYGVSCVPTVKKFTLDPALDEFVLMGCDGFWNCWTASEALNLASEAWEKEIRSSKVHSRPVDPQNVSKQLVEHVLIDKKSQDNITVLLLKISRKEGHHHHHH | soluble
MGSDKIHHHHHHVTVHGLPAPSADTALYQSIMEAGFTAFPERLANWRRFKAAQRGERLDYLPVKLDVEHVSRCNYRCTMCQVSDWPKMTRAADMTVGDFKSLLEQQIGVVEIKLQGMGEPLLAAESFFEMIRHARERHIWVRATTNGSLLHIKENYKGLVESDICEIQVSIDGARPETYEAIRRGGKFERVAENCRLLNAHAAQDGRERTRMWVVVQQGNLADLDLLPKAAAEMGFKRLTLSLDLTSWGQETWERNNEALDAHDLLPVEKAWALVEEGKRLGVEVTFWAIDSKYDWSDPAKLCPWPFERAYIASDMRVVPCCMIANPDVLDMGDARDLTGVWTGERMAEFRRAHLEGRIPEVCNSCYRDPPAP | not soluble
MSLIDARLATEIVVRTVEVMPFDVNVMDAHGVILASSDAARVGEIHAGAQLALARARAVEIDDAMAANLSGARPGINLPLSVRGKVCGVIGVTGEPDAVRGFGELLRVTAELILEREQLTVELRRNARHREEFVLQLLRRTAAAAELEAWADRLGIDMRLAHAAIVCRLSGVDTEPEAGVGQIEAMQSQLAQEWPQLLSAKTSYRELVMFDAVDARAGRDGVLATHAGKRLAALEDTLRKVATQPFSLALGIALDGIDGFERSYQCALATLRVGAARTPQRAAYSYYDFVLPVLLSALSQGWQARQLRLPLTRLLARERRSGALLDTLKAWYAHDGHPSATAQALGIHRNTLDYRLQQIRDATGLDLGAIDDRLWLYIALQTMAGEGHHHHHH | soluble
MASLSDQSGSIGSEQTRPSGAIPVESLPPQALEQLIASLQQEVEQLADALQQLNFANQRWTLCKQSIEAFAEETTRVDLPGAQSRATDAISSTASAKPETSVEVNQNQRLLVPLSRSLYVLGRVINPERCLIDIGTGYHVERKLADAAEFFDRRLKHVRGSMRQLTLKIDQNQQQMQTIREILVRKLAGAQQAAEHT | not soluble
MGSDKIHHHHHHMKRNESKYKQVVNHVIDGINNGSYKKGDWILSINEFRKNYNLSRDTVFAGLSELKSKGIIDSTPGVGYYIATTRIAQKLNIFLLFNEFNEFKEDLYNSFISSIRKTANVDLYFHNYNRKVFETLINEANYKYTTYILMPGKFTNIAPLLESLSGRVFLLDHFHPELAGKYSSVAQNFEKDTYEALVYGLPHLKKYDHIIMVQKEEKEPIERYNGLCAFCEEYHFTHEYTDSVRNREIRQGETFMVVNDRDLVDLLKQAQLQNFAPGKDFGIISYNDTPLKEILAGGITTLSTDFKQMGQTMASLITQKEIKTIENPWKLDIRNSL | not soluble
MNRTDELRTARIESLVTPAELALRYPVTPGVATHVTDSRRRIEKILNGEDKRLLVIIGPCSIHDLTAAMEYATRLQSLRNQYQSRLEIVMRTYFEKPRTVVGWKGLISDPDLNGSYRVNHGLELARKLLLQVNELGVPTATEFLDMVTGQFIADLISWGAIGARTTESQIHREMASALSCPVGFKNGTDGNTRIAVDAIRAARASHMFLSPDKNGQMTIYQTSGNPYGHIIMRGGKKPNYHADDIAAACDTLHEFDLPEHLVVDFSHGNCQKQHRRQLEVCEDICQQIRNGSTAIAGIMAESFLREGTQKIVGSQPLTYGQSITDPCLGWEDTERLVEKLASAVDTRF | soluble
SRRLGKSLGINSIPCKFCSYDCVYCQVGRTINKTIERREFYSPEDIFKSVEERIGKLNNEKIDYLTFVADGEPTLDINLSKEVEMLRDFDIPIAIITNSSLIWREDVRNDILNFDLVSFKVDSVDEKIWREINRPHKDLVLDKILEGMIAFRDNYKGELITETMILGSIKYTEESIIKTAEFLKELNPNKCYLNTPIRPPSEKYIKPPKIEVITKILAIFNEIIGKNKIKLLGKFE | not soluble
MGHHHHHHSHMSSYHCAMNNENARLLTFQTWPLTFLSPTDLAKAGFYYIGPGDRVACFACGGKLSNWEPKDNAMSEHLRHFPKCPFIENQLQDTSRYTVSNLSMQTHAARFKTFFNW | not soluble
MSLSHNSSLPPFTASGFAEDQGAVRIWRKDSGDNVHFLAVFSPWRSGDTTTREYRWQGDNLTLININVYSKPPVNIRARFDDRGDLSFMQRESDGEKQQLSNDQIDLYRYRADQIRQISDALRQGRVVLRQGRWHAMEQTVTTCEGQTIKPDLDSQAIAHIERRQSRSSVDVSVAWLEAPEGSQLLLVANSDFCRWQPNEKTFEGHHHHHH | not soluble
MAKVLVLGGGIGGTEAAIALRKEGFEVSLVSDKPYLYIYPISIWIPTGEAKFEDVIIPLDKFARRWGVNLIIDRVEKIDAQNKKVHLKSGKVLEDFDYLVVALGQTKRKEKGLENTLSICGSPEEALKIRDRLVELIAKGEGKIAFGFGGNPKDKTAVRGRPVFEVLFNVDYHLSRLGIRDRFELTFFAPMPKPGERLGEKALKMLDQMFQKYGIKKITGKKIKEFKENGVLFEDDTFLESDLIIYTPAGWGNPVFADSGFPLNEAGFIKIEETCQVVGYEWAYAIGDSAAIEGPPWTAKQGHLAEVMGHITAHNIAVKEGKKSGELKSYKEHINILCLMDMGWRGGGFAYRSDKRAMLIPIPVLGHIMKKAWGVYYKLYKLGKIPKII | not soluble
MSLKNYQSSDPFKEARVSSGCAHMNDQDDPVTMILRLKDVRKTAHNWKTFQSGAAPGRIVIPSEVNIRDTRQIPFEVDPPLHGAFRSLLDPWFKRPLKAQYQETLAQQVNALVDDVLKADSIDVVEDFALCLQSRALTLLLNTDADEADTWIGWGTHVFRSEDDPLDGDKAAILYDYIDEKIKASSPNPEGDLYSVLLAAEVEGKKLTHEEIKGIMILTFAGGRDTVINAVTNTVSYFAQHPESLARLRNEPEIIGRAIEELIRYFTPLTQMGRVVTQDTQVCEHAIKADSRVSLCWASANRDESVFESPNDVILDRKLNPHVSFGFSHHNCLGATHARQIMRVLIETLMAKVGSIDIIDFEENIEYLGEFERKVGFHKLHVNIHPREGHHHHHH | soluble
MDAPLAEQDLKALFLRHARQLQSYLLRKTRDPHLAADLAQESFLRLAEQRHKEPIEHVDAYLYRTAHNLTIDHYRQERRRRTETQPNDDLAGFVADQPGPEESAVDADALARLREIVAELPPRTREIFRLNRLEGLTHAEVARRLEISDSSVQKHLARTLAHVMQALEDSR | not soluble
SADDKDVLRDVWFGRIPACFTLSPDETTEREAEPYYLLLPRVSYLTLVTDKVKKHFLKVMKAEDVEEMWFEHEGTPLKWHYPIGVLFDLHASNSALPWNVTVHFKNFPEQDLLHCSTNSVIEAHFMSCIKEADALKHKGQVINDMQKKDHKQLWMGLQNDKFDQFWAMNRKLMEYPTEEGGFRYIPFRIYQTMSDRPFIQTLFRPVSSEGQALTLGDLLKELFPAAIEDEPKKFQVMIHGIEPLLETPIQWLSEHLSHPDNFLHISIIPAPSD | soluble
MQVVSSATLPPTVASADLAIVGGRSSDEDVIKYSAIQTIKQEQQQQQQQQSNTALPSYNFPFFNGMQNDFPPNRMLYNDNTMQKSENDHFTGMNLSTSASSSGNSTSSKDQSRRQFYTESSNSSGNGAAATSGSNGSSSSTESKSDVFNISMNAFAATPGSKSEDHNIPSFNMLSSYYTGALKLSNSTSFANPDPYQILGPTSKNLAHSGSGQTQLWQFLLELLSDKRYSEVITWEGTQGEFKLVDPDEVARKWGERKSKPNMNYDKMSRALRYYYDKNIMAKVHGKRYAYKFDFQGIAQALQPPTASHPQDYFNSHAMGRIAPDFSSWTSANYRSLNIAGFNNGSTIFNPSVNYSAFGATGTSNNLSAARAFPLYR | not soluble
MSLSDQPVLFSRAAASCRLTLNREDKCHAINEEMIESLDHYLNEIENDTALRLVELTATGDKFFCAGGDIKSWSAYSPLDMGRKWIKRGNDVFNRLRNLPQLTVANLNGHTIGGGIELALCCDIRIARPHAKFSNPEVMLGMVPGWMGIERVLNQVGPVVGRQMLMLGKRLTAQEAQAANLIDEVVEKEQVESWMANQLAQLEKCGPVALAHIKQLILALENKHADYSHQLLAGLMSATQDCQQATHAFAEKAGVSFHNQEGHHHHHH | soluble
FNDEGEMHLPGQYDMLKARLAKNPGAELLIFIHGWHHNAAPTDDNFVAFQRFHRQMAKTNPGLIGLYIGWRGDQYDPLWLDGSDDPESRVEALDFPTILTSKQVARRVGEHGVRKLLSSLDELHRQGTLGRYILVGHSLGGVVALHA | not soluble
MGSDKIHHHHHHMDLNALTLLVDILDAGNLSKAAQRLKMSRANVSYRLNQLEKSIGLQLVRRTTRRIEPTEIGLRLYEHGRRIQSELFAAREAVTTLGQDLQGRVRLSVPSGYGQLVMSNWLIAFKRLYPGIVLDVVFENRIEDLMRDEVDIAVRVMSEPPQNLVARDMGAVRYVACASPGFAATHGMPTELGQLFDAPVITSTVVGRQLRVAAYLGDERHEVLLEPTLISENFLFLRQAILAGLGVGIVPDYVVHDDVRRGAVVTTLDAYRLSIFGTHMYMLYMPNRHHTRATSTFIDFMLEEARNAGRGG | not soluble
MERDRISALKRSFEVEEVETPNSTPPRRVQTPLLRATVASSTQKFQDLGVKNSEPSARHVDSLSQRSPKASLRRVELSGPKAAEPVSRRTELSIDISSKQVENAGAIGPSRFGLKRAEVLGHKTPEPAPRRTEITIVKPQESAHRRMEPPASKVPEVPTAPATDAAPKRVEIQMPKPAEAPTAPSPAQTLENSEPAPVSQLQSRLEPKPQPPVAEATPRSQEATEAAPSCVGDMADTPRDAGLKQAPASRNEKAPVDFGYVGIDSILEQMRRKAMKQGFEFNIMVVGQSGLGKSTLINTLFKSKISRKSVQPTSEERIPKTIEIKSITHDIEEKGVRMKLTVIDTPGFGDHINNENCWQPIMKFINDQYEKYLQEEVNINRKKRIPDTRVHCCLYFIPATGHSLRPLDIEFMKRLSKVVNIVPVIAKADTLTLEERVHFKQRITADLLSNGIDVYPQKEFDEDSEDRLVNEKFREMIPFAVVGSDHEYQVNGKRILGRKTKWGTIEVENTTHCEFAYLRDLLIRTHMQNIKDITSSIHFEAYRVKRLNEGSSAMANGVEEKEPEAPEM | not soluble
MNKKVGESTLYEWLVSYQKLEQEIYYLDWELETYKKELERWCDPEDLGRYTLTKDSKASKLEDIIEDLEKRLAWKMNSIYDLRKLVYSFKGLDQKILVAKYIEGLSLKQIAGEFGHSYGYIRNKHNQILKKIEKSDNDVTIPIDKS | not soluble
MGSDKIHHHHHHMEQLQKRKIYDTTASNASTGILNGKSSNVLNWDDVRFSWAYPLYKNMLANFWTPFEINMSHDAKQFPTLTETEQEAFKKIIGLLAFLDSVQTDYSMRAAEYLTDSSLAALMSVLSFQEVVHNQSYSYVLSSLVPKATQDEIFEYWKHDDVLKERNEFIIDGYEKFVDNPTPKTFLESIVYDVILEGLNFYSGFAFFYNLARNQKMVSTSTMINYINRDEQLHVYLFTNIFKELLVEFPELNTEETKTFVKTTLMKAADLEKDWFRYIIGDKIPGINPEDMETYISFIANKRAVQLGMEKPYPEIKHNPMKWIRAYEDVNSGKSDFFEQKSRQYAKVSADNGFDEL | not soluble
MGSSHHHHHHSQDPLVPRGSGSDYIIKEKTVLLQKKDSEGFGFVLRGAKAQTPIEEFTPTPAFPALQYLESVDEGGVAWRAGLRMGDFLIEVNGQNVVKVGHRQVVNMIRQGGNTLMVKVVMVTRHPDMDEA | soluble
